Assays:
[1] = biological target: rhAAT (recombinant alpha1-antitrypsin, preparations not specified per panel)
[2] = biological target: AAT (alpha1-antitrypsin; preparation not stated in Example 15), P01009
AAT (alpha1-antitrypsin; preparation not stated in Example 15), P01009, sequence (P01009 whole entry, looked up): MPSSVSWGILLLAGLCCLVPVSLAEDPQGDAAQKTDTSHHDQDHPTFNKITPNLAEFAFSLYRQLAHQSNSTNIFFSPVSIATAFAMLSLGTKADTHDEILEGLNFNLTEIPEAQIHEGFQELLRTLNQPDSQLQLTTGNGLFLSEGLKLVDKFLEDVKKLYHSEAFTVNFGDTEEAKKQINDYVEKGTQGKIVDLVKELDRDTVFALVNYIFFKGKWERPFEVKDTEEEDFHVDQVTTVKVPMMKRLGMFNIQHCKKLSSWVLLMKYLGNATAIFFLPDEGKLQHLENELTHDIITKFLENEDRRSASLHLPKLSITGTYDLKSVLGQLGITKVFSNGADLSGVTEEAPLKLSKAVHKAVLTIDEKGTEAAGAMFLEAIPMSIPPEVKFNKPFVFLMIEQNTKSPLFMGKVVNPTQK

| Protein | neutrophil elastase protease activity, MeOSuc-AAPV-pNA substrate assay (Vmax, % of untreated); AAT at 1 nM and 10 nM [1] | TMPRSS2 protease activity (cleavage of Boc-QAR-AMC peptide, fluorescence, Vmax) [2] |
| --- | --- | --- |
| purified human neutrophil elastase (ELA2) (protein) IVGGRRARPHAWPFMVSLQLRGGHFCGATLIAPNFVMSAAHCVANVNVRAVRVVLGAHNLSRREPTRQVFAVQRIFENGYDPVNLLNDIVILQLNGSATINANVQVAQLPAQGRRLGNGVQCLAMGWGLLGRNRGIASVLQELNVTVVTSLCRRSNVCTLVRGRQAGVCFGDSGSPLVCNGLIHGIASFVRGGCASGLYPDAFAPVAQFVNWIDSIIQ | AAT and rhAAT inhibits neutrophil elastase protease activity | – |
| TMPRSS2 recombinant protein (creative biomart) (protein) WKFMGSKCSNSGIECDSSGTCINPSNWCDGVSHCPGGEDENRCVRLYGPNFILQVYSSQRKSWHPVCQDDWNENYGRAACRDMGYKNNFYSSQGIVDDSGSTSFMKLNTSAGNVDIYKKLYHSDACSSKAVVSLRCIACGVNLNSSRQSRIVGGESALPGAWPWQVSLHVQNVHVCGGSIITPEWIVTAAHCVEKPLNNPWHWTAFAGILRQSFMFYGAGYQVEKVISHPNYDSKTKNNDIALMKLQKPLTFNDLVKPVCLPNPGMMLQPEQLCWISGWGATEEKGKTSEVLNAAKVLLIETQRCNSRYVYDNLITPAMICAGFLQGNVDSCQGDSGGPLVTSKNNIWWLIGDTSWGSGCAKAYRPGVYGNVMVFTDWIYRQMRADG | – | AAT inhibits TMPRSS2 protease activity |
